This assay deals with T1, Zap70 D461N-tagged (Myc- or hemagglutinin-tagged, kinase-inactive Zap70) (human, UniProt P43403 1-619, D461N).
T1 sequence (looked up): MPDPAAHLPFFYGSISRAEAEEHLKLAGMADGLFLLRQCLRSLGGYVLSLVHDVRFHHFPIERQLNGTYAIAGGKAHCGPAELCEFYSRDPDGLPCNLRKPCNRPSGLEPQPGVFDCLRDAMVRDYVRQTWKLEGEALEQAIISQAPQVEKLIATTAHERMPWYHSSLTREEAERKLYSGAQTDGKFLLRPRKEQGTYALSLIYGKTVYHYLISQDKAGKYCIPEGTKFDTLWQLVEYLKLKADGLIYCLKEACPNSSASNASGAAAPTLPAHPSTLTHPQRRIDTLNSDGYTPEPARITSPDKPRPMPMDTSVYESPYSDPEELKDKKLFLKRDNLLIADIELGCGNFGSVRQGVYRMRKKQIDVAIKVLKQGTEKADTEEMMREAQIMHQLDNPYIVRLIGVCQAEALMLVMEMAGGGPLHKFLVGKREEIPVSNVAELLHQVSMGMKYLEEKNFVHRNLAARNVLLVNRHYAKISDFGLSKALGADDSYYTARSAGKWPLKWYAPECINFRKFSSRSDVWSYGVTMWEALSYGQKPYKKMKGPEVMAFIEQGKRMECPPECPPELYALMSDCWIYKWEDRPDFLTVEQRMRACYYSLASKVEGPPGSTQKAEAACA
Nature of the assay: ELISA. Background: ELISA stands for enzyme-linked immunosorbent assay.

Where no end group is shown, it is not given here.

Consider GGAGQDGVRQSRASDKQTLLPNDQLYQPLKDREDDQYSHLQGNQLRRN (domain or fragment, also: ITAM phosphorylated by Lck, sites not given here, GST fusion), for which the binding result is “binds”.

Source of the values: article PMC5490839 (Nature immunology, 2016).
